These results are taken from paper PMC2802658 (Biochemistry, 2010).

The target of test [1] is T1, cation-dependent mannose 6-phosphate receptor (sCD-MPR) (Bos taurus, UniProt P11456, N59Q/N85Q/N96Q/N115Q).
T1 sequence (P11456 29-182 N59Q/N85Q/N96Q/N115Q): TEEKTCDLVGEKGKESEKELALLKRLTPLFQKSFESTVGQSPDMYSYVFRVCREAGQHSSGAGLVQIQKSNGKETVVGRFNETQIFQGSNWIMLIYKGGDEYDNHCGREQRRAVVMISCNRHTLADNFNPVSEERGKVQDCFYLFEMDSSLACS
Put plainly: […]-1H HSQC NMR titration. It is filed as binding.

Test [2] has as its target β-glucuronidase (Homo sapiens) (UniProt P08236). The note with it: cited from earlier work.
The target is the same in test [3]. The note with it: cited from earlier work. The source holds these as a separate data set.
The target is the same in test [4]. As to conditions: cited from earlier work. This is another data set of the same source.

Read-outs that look alike come from different tables or passages of the source.

Sequence of β-glucuronidase (Homo sapiens) (P08236 23-651): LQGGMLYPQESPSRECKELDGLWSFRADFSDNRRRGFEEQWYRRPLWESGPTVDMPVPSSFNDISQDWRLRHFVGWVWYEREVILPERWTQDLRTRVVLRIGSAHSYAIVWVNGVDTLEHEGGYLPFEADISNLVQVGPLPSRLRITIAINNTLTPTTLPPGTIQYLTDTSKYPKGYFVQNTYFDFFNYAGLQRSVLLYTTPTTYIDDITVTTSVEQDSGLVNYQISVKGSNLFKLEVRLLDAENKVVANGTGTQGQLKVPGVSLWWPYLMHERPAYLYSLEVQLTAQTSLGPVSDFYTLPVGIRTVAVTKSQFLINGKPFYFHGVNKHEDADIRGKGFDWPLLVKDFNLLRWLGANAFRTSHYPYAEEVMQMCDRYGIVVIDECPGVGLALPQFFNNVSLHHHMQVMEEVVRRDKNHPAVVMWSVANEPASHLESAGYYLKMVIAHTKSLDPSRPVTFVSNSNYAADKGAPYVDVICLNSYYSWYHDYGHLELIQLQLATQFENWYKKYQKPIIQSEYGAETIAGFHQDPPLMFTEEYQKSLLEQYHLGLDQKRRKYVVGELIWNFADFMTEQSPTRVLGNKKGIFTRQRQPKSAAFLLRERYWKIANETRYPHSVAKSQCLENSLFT

Turning to `O=P(O)(O)OC[C@H]1OC(O)[C@@H](O)[C@@H](O)[C@@H]1O` (stereo partly shown) [mannose 6-phosphate], the Kd (commonly the constant that tells how readily two partners part at equilibrium) in test [1] was ~1 mM.
Take “cation-dependent mannose 6-phosphate receptor (from UniProt P11456)”: the equilibrium dissociation constant (Kd) in test [2] is 0.28 nM.
Consider “cation-dependent mannose 6-phosphate receptor (sCD-MPR) ECD (from UniProt P11456)”, for which, in test [3], the Kd is 1.4 nM.
With “cation-dependent mannose 6-phosphate receptor (sCD-MPRHis6) ECD (from UniProt P11456)”, in test [4], the equilibrium dissociation constant (Kd) is 1.5 nM.
